Measurements from PMC4857094.

Key:
[1] = molecular target: circularly permutated RBD of PKN1 (PKN1-WT) in the RhoA/B/C FRET sensors; experiment: FRET or BRET; intramolecular single-chain sensor (PKN1 RBD, mVenus, Cerulean3, RhoGTPase); normalized mean YFP/CFP ratio change of whole live HUVEC after Thrombin (1 U/ml) at t = 110 sec
[2] = molecular target: circularly permutated RBD of PKN1 (PKN1-WT) in the RhoA/B/C FRET sensors; experiment: FRET or BRET; intramolecular single-chain sensor (PKN1 RBD, mVenus, Cerulean3, RhoGTPase); average basal YFP/CFP ratio in resting live primary human EC (HUVEC), 18 hours after microporation

Row | Substance | mean maximal FRET ratio change after Thrombin [1] [%] | basal YFP/CFP ratio [2]
1 | RhoA-WT in the RhoA FRET sensor (from UniProt P61586 1-193) (natural protein) | 32 | –
2 | RhoA-Q63L in the RhoA FRET sensor (from UniProt P61586 1-193) (natural protein) | – | 8.1
3 | RhoB-WT in the RhoB FRET sensor (from UniProt P62745 1-196) (natural protein) | 122 | –
4 | RhoC-Q63L in the RhoC FRET sensor (from UniProt P08134 1-193) (natural protein) | – | 6.8

The remaining lines, values ahead:

Row | mean maximal FRET ratio change after Thrombin [1] [%] | basal YFP/CFP ratio [2] | Substance
5 | – | 6.5 | RhoB-G14V in the RhoB FRET sensor (from UniProt P62745 1-196) (natural protein)
6 | 42 | – | RhoC-WT in the RhoC FRET sensor (from UniProt P08134 1-193) (natural protein)
7 | – | 6.2 | RhoC-G14V in the RhoC FRET sensor (from UniProt P08134 1-193) (natural protein)
